System: CHO-parent cells
Assay: Flow cytometry binding assay on CHO-parent cells (background binding)
Parameters: species or system Chinese Hamster
Method: GLP-1R IgG clones were tested in a binding assay coupled to flow cytometry analysis as follows: FLAG-GLP-1R-GFP expressing CHO cells (CHO-GLP-1R) and CHO-parent cells were incubated with 100 nM IgG for 1 h on ice, washed three times and incubated with Alexa 647 conjugated goat-anti-human antibody (1:200) (Jackson ImmunoResearch Laboratories, 109-605-044) for 30 min on ice, followed by three washes, centrifuging to pellet the cells between each washing step. All incubations and washes were in buffer containing PBS+1% BSA. For titrations, IgG was serially diluted 1:3 starting from 100 nM down to 0.046 nM. Cells were analyzed by flow cytometry and hits (a hit is an IgG that specifically binds to CHO-GLP-1R) were identified by measuring the GFP signal against the Alexa 647 signal. Flow cytometry data of binding assays with 100 nM IgG are presented as dot plots. Analyses of binding assays with IgG titrations are presented as binding curves plotting IgG concentrations against MFI (mean fluorescence intensity).

Row | Molecule | Median RL1-H of Parent Singlets (Table 6C, GLP1R-221 variants) | Bmax CHO Parent (Table 6E, IgG titration) | Median RL1-H of Parent Singlets (Table 6D, GLP1R-222 variants) | Bmax CHO Parent (Table 6F, IgG titration) | EC50 (Table 6F, IgG titration) [nM]
1 | GLP1R221-084: GLP1R-221 variant, optimized from GLP1R-3 (antibody, V domains shown) VH: QVQLVESGGGVVQPGRSLRLSCAASGFAFSNYGMHWVRQAPGKGLEWVAVISSDENNKYYADSVKGRFTISRDNSKNTLYLQMNSLRAEDTAVYYCAKHMSMQEGAVTGEMQAAKEFIAWLVKGRVRADLVGDAFDVWGQGTLVTVSS VL: QSVLTQPPSVSAAPGQKVTISCSGSSSNIADNYVSWYQQLPGTAPKLLIYENNRRPSGIPDRFSGSKSGTSATLGITGLQTGDEADYYCGTWDVSLSVGMFGGGTKLTVL | 207 | 266.6 |  |  | 
2 | GLP1R221-033: GLP1R-221 variant, optimized from GLP1R-3 (antibody, V domains shown) VH: QVQLVESGGGVVQPGRSLRLSCAASGFSFSNYAMHWVRQAPGKGLEWVAVISHDRSNKYYADSVKGRFTISRDNSKNTLYLQMNSLRAEDTAVYYCAKHMSMQEGAVTGEGQAAKDFIAWLVKGRVRADLVGDAFDVWGQGTLVTVSS VL: QSVLTQPPSVSAAPGQKVTISCSGSSSNIGNEYVSWYQQLPGTAPKLLIYDNNKRVSGIPDRFSGSKSGTSATLGITGLQTGDEADYYCATWDTSLNVGVFGGGTKLTVL | 236 | 146 |  |  | 
3 | GLP1R221-066: GLP1R-221 variant, optimized from GLP1R-3 (antibody, V domains shown) VH: QVQLVESGGGVVQPGRSLRLSCAASGFTFNNYAMHWVRQAPGKGLEWVAVISYDRSNEYYADSVKGRFTISRDNSKNTLYLQMNSLRAEDTAVYYCAKHMSMQEGAVTGEGQAIKEFIAWLVKGRVRADLVGDAFDVWGQGTLVTVSS VL: QSVLTQPPSVSAAPGQKVTISCSGSSSNIGNNYLSWYQQLPGTAPKLLIYENNKRPSGIPDRFSGSKSGTSATLGITGLQTGDEADYYCGIWDRSLSAWVFGGGTKLTVL | 240 | 112.1 |  |  | 
4 | GLP1R221-065: GLP1R-221 variant, optimized from GLP1R-3 (antibody, V domains shown) VH: QVQLVESGGGVVQPGRSLRLSCAASGFTFNNYAMHWVRQAPGKGLEWVAVISYDRSNEYYADSVKGRFTISRDNSKNTLYLQMNSLRAEDTAVYYCAKHMSMQEGAVTGDGQAAKEFIAWLVKGRVRADLVGDAFDVWGQGTLVTVSS VL: QSVLTQPPSVSAAPGQKVTISCSGTTSNIANNFVSWYQQLPGTAPKLLIYDHNKRPSGIPDRFSGSKSGTSATLGITGLQTGDEADYYCGTWDTSLSAGAFGGGTKLTVL | 298 | 261.9 |  |  | 
5 | GLP1R221-076: GLP1R-221 variant, optimized from GLP1R-3 (antibody, V domains shown) VH: QVQLVESGGGVVQPGRSLRLSCAASGFTFNNYPMHWVRQAPGKGLEWVAVISYDETNKYYADSVKGRFTISRDNSKNTLYLQMNSLRAEDTAVYYCAKHMSMQEGAVTGEGQAAKEFIAWLVKGIVRADLVGDAFDVWGQGTLVTVSS VL: QSVLTQPPSVSAAPGQKVTISCSGTSSNIGNNDVSWYQQLPGTAPKLLIYENNKRHSGIPDRFSGSKSGTSATLGITGLQTGDEADYYCLTWDHSLTAYVFGGGTKLTVL | 316 | 183.2 |  |  | 
6 | GLP1R221-092: GLP1R-221 variant, optimized from GLP1R-3 (antibody, V domains shown) VH: QVQLVESGGGVVQPGRSLRLSCAASGFIFNNYGMHWVRQAPGKGLEWVAFISYGGSNKYYADSVKGRFTISRDNSKNTLYLQMNSLRAEDTAVYYCAKHMSMQEGAVTGEGQAVKEFIAWLVKGRVRADLVGDAFDVWGQGTLVTVSS VL: QSVLTQPPSVSAAPGQKVTISCSGTTSNIANNFVSWYQQLPGTAPKLLIYDNNKRPPGIPDRFSGSKSGTSATLGITGLQTGDEADYYCGTWDTSLSVGMFGGGTKLTVL | 326 | 291.2 |  |  | 
7 | GLP1R221-034: GLP1R-221 variant, optimized from GLP1R-3 (antibody, V domains shown) VH: QVQLVESGGGVVQPGRSLRLSCAASGFPFSNYGMHWVRQAPGKGLEWVAVISHDRSNKYYADSVKGRFTISRDNSKNTLYLQMNSLRAEDTAVYYCAKHMSMQEGAVTGEGQAVKEFIAWLVKGRVRADLVGDAFDVWGQGTLVTVSS VL: QSVLTQPPSVSAAPGQKVTISCSGSSSNIGNNPVSWYQQLPGTAPKLLIYENDNRPSGIPDRFSGSKSGTSATLGITGLQTGDEADYYCATWDRGLSTGVFGGGTKLTVL | 314 | 279.8 |  |  | 
8 | GLP1R221-017: GLP1R-221 variant, optimized from GLP1R-3 (antibody, V domains shown) VH: QVQLVESGGGVVQPGRSLRLSCAASGFTFSDYGVHWVRQAPGKGLEWVAFISYDESNKYYADSVKGRFTISRDNSKNTLYLQMNSLRAEDTAVYYCAKHMSMQEGAVTGEYQAAKEFIAWLVKGRVRADLVGDAFDVWGQGTLVTVSS VL: QSVLTQPPSVSAAPGQKVTISCSGSSSNIGNTYVSWYQQLPGTAPKLLIYDDYKRPSGIPDRFSGSKSGTSATLGITGLQTGDEADYYCATWDATLNTGVFGGGTKLTVL | 162 | 228.7 |  |  | 
9 | GLP1R221-075: GLP1R-221 variant, optimized from GLP1R-3 (antibody, V domains shown) VH: QVQLVESGGGVVQPGRSLRLSCAASGFTFSNYPMHWVRQAPGKGLEWVAVISYDETNKYYADSVKGRFTISRDNSKNTLYLQMNSLRAEDTAVYYCAKHMSMQEGAVTGEGQAAKEFIAWLVKGIVRADLVGDAFDVWGQGTLVTVSS VL: QSVLTQPPSVSAAPGQKVTISCSGSGSNIGNNDVSWYQQLPGTAPKLLIYDNDKRPAGIPDRFSGSKSGTSATLGITGLQTGDEADYYCGTWDTSLSNYVFGGGTKLTVL | 206 | 234 |  |  | 
10 | GLP1R221-009: GLP1R-221 variant, optimized from GLP1R-3 (antibody, V domains shown) VH: QVQLVESGGGVVQPGRSLRLSCAASGFIFSNYGMHWVRQAPGKGLEWVAVISDEGSNKYYADSVKGRFTISRDNSKNTLYLQMNSLRAEDTAVYYCAKHMSMQEGAVTGAGQAAKEFIAWLVKGRVRADLVGDAFDVWGQGTLVTVSS VL: QSVLTQPPSVSAAPGQKVTISCSGSSSNIGNQYVSWYQQLPGTAPKLLIYDDHKRPSGIPDRFSGSKSGTSATLGITGLQTGDEADYYCGTWDTSLSVGEFGGGTKLTVL | 197 | 267.4 |  |  | 
11 | GLP1R222-073: GLP1R-222 variant, optimized from GLP1R-3 (antibody, V domains shown) VH: QVQLVESGGGVVQPGRSLRLSCAASGFTFRDYGMHWVRQAPGKGLEWVAFIRYDEINKYYADSVKGRFTISRDNSKNTLYLQMNSLRAEDTAVYYCAKHMSMQEGAVTGEGQAAKEFIAWLVGGRVRADLVGDAFDVWGQGTLVTVSS VL: QSVLTQPPSVSAAPGQKVTISCSGSGSNIGNNDVSWYQQLPGTAPKLLIYDNNKRASGIPDRFSGSKSGTSATLGITGLQTGDEADYYCGTWDRGPNTGVFGGGTKLTVL |  |  | 229 | 228.4 | 
12 | GLP1R222-056: GLP1R-222 variant, optimized from GLP1R-3 (antibody, V domains shown) VH: QVQLVESGGGVVQPGRSLRLSCAASGFPFSSYAMHWVRQAPGKGLEWVAVISYDRSNKYYADSVKGRFTISRDNSKNTLYLQMNSLRAEDTAVYYCAKHMSMQEGAVTGYGQAAKEFIAWLVKGFVRADLVGDAFDVWGQGTLVTVSS VL: QSVLTQPPSVSAAPGQKVTISCSGSSSNIGSNYISWYQQLPGTAPKLLIYDNDKRPAGIPDRFSGSKSGTSATLGITGLQTGDEADYYCGTWDTSLSVGEFGGGTKLTVL |  |  | 230 | 237.5 | 
13 | GLP1R222-081: GLP1R-222 variant, optimized from GLP1R-3 (antibody, V domains shown) VH: QVQLVESGGGVVQPGRSLRLSCAASGFTFDNYALHWVRQAPGKGLEWVALISYDAGNKYYADSVKGRFTISRDNSKNTLYLQMNSLRAEDTAVYYCAKHMSMQEGAVTGEGQAAKEFIAWLVKGFVRADLVGDAFDVWGQGTLVTVSS VL: QSVLTQPPSVSAAPGQKVTISCSGSSSNIGSDYVSWYQQLPGTAPKLLIYDNNKRSSGIPDRFSGSKSGTSATLGITGLQTGDEADYYCGTWDESLRSWVFGGGTKLTVL |  |  | 260 | 243.4 | 
14 | GLP1R222-014: GLP1R-222 variant, optimized from GLP1R-3 (antibody, V domains shown) VH: QVQLVESGGGVVQPGRSLRLSCAASGFAFSNYGMHWVRQAPGKGLEWVSFISYDESNKYYADSVKGRFTISRDNSKNTLYLQMNNLRAEDTAVYYCAKHMSMQEGAVTGEWQAAKEFIAWLVKGRVRADLVGDAFDVWGQGTLVTVSS VL: QSVLTQPPSVSAAPGQKVTISCSGSSSNIGNHDVSWYQQLPGTAPKLLIYDNNKRHSGIPDRFSGSKSGTSATLGITGLQTGDEADYYCGTWDTSLSAGVFGGGTKLTVL |  |  | 299 | 336.4 | 
15 | GLP1R222-023: GLP1R-222 variant, optimized from GLP1R-3 (antibody, V domains shown) VH: QVQLVESGGGVVQPGRSLRLSCAASGFSFSDYGMHWVRQAPGKGLEWVAFISYDANNKYYADSVKGRFTISRDNSKNTLYLQMNSLRAEDTAVYYCAKHMSMQEGAVTGEWQAAKEFIAWLVKGRVRADLVGDAFDVWGQGTLVTVSS VL: QSVLTQPPSVSAAPGQKVTISCSGSSSNIGNNDVSWYQQLPGTAPKLLIYENTKRPSGIPDRFSGSKSGTSATLGITGLQTGDEADYYCGTWDAGLSTGVFGGGTKLTVL |  |  | 310 | 237.9 | 89.4
